Assay results from US20250376519A1 (JIANGSU HENGRUI PHARMACEUTICALS, published 2025).

T1: human DLL3 (ACRO, DLL3-H52H4) (human, UniProt Q9NYJ7 27-492)
T1 construct: Bought
T1 sequence: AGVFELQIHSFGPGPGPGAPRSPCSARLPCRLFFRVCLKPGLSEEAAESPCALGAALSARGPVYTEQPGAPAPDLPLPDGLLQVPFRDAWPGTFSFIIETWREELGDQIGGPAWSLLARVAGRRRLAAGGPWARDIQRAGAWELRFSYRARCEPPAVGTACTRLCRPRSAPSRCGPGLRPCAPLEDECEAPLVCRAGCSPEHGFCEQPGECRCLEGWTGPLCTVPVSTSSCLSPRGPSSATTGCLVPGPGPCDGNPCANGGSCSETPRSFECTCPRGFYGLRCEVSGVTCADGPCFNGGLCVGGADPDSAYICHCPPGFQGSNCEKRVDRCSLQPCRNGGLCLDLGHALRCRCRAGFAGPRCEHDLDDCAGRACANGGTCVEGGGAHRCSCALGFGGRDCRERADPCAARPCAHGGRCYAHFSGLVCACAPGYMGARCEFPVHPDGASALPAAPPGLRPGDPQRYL


These binders were tested against T1, human DLL3 (ACRO, DLL3-H52H4) (assay: SPR Biacore 8K, Ab captured on Protein A).
Text: Test antibodies were affinity-captured with a Protein A biosensor chip (Cat. #29127556, Cytiva) for 18 seconds, and then the antigens human DLL3 (ACRO, DLL3-H52H4), cynomolgus monkey DLL3 (KACTUS, DLL-RM103), mouse DLL3 (KACTUS, DLL-MM103), human CD3D&3E (ACRO, CDD-H52W1), and monkey CD3D&3E (ACRO, CDD-C52W4) were allowed to flow through the surface of the chip for 180 seconds, followed by 600 seconds of dissociation. Reaction signals were detected in real time using a Biacore 8K (Cytiva) instrument to obtain association and dissociation curves. After the dissociation in each experimental cycle, the chip was washed and regenerated with a 10 mM glycine-hydrochloric acid solution (pH 1.5, Cat. #BR-1003-54, Cytiva). Data fitting was performed using a 1:1 Model.

Row | Binder | Kd [nM] | koff [s⁻¹] | kon [M⁻¹ s⁻¹]
1 | hu6L1H1 (antibody, human IgG1, kappa, V domains shown) VH: EVQLVQSGAEVKKPGASVKVSCKASGYTFTDYYMNWVRQAPGQRLEWMGIINPYSGVTIYNHKFKGRVTITVDKSASTAYMELSSLRSEDTAVYYCARQDSLLDYAMDYWGQGTTVTVSS VL: DIQMTQSPSSLSASVGDRVTITCHASQGISGNMGWLQQKPGKAPKGLIYHGANLEDGVPSRFSGSGSGTDFTLTISSLQPEDFATYYCVQYAQFPYTFGGGTKVEIKR | 2.81 | 0.00225 | 798000
2 | hu6L1H2 (antibody, human IgG1, kappa, V domains shown) VH: EVQLVQSGAEVKKPGASVKVSCKASGYTFTDYYMNWVRQAPGQRLEWMGIINPYSGVTIYNHKFKGRVTLTVDKSANTAYMELSSLRSEDTAVYYCARQDSLLDYAMDYWGQGTTVTVSS VL: DIQMTQSPSSLSASVGDRVTITCHASQGISGNMGWLQQKPGKAPKGLIYHGANLEDGVPSRFSGSGSGTDFTLTISSLQPEDFATYYCVQYAQFPYTFGGGTKVEIKR | 2.19 | 0.00173 | 787000
3 | hu6L1H3 (antibody, human IgG1, kappa, V domains shown) VH: EVQLVQSGAEVKKPGASVKVSCKASGYTFTDYYMNWVRQAPGQRLEWIGIINPYSGVTIYNHKFKGRATLTVDKSANTAYMELSSLRSEDTAVYYCARQDSLLDYAMDYWGQGTTVTVSS VL: DIQMTQSPSSLSASVGDRVTITCHASQGISGNMGWLQQKPGKAPKGLIYHGANLEDGVPSRFSGSGSGTDFTLTISSLQPEDFATYYCVQYAQFPYTFGGGTKVEIKR | 2.76 | 0.00224 | 812000
4 | hu6L2H1 (antibody, human IgG1, kappa, V domains shown) VH: EVQLVQSGAEVKKPGASVKVSCKASGYTFTDYYMNWVRQAPGQRLEWMGIINPYSGVTIYNHKFKGRVTITVDKSASTAYMELSSLRSEDTAVYYCARQDSLLDYAMDYWGQGTTVTVSS VL: DIQMTQSPSSLSASVGDRVTITCHASQGISGNMGWLQQKPGKAPKGLIYHGANLEDGVPSRFSGSGSGADYTLTISSLQPEDFATYYCVQYAQFPYTFGGGTKVEIKR | 2.19 | 0.00155 | 709000
5 | hu30L5H8 (antibody, human IgG1, kappa, V domains shown) VH: EVRLVQFGAVVKKPGASVKVSCKASGYTFTDYYMNWVRQAPGQSLEWMGIINPYTGDTSYNQKFRGRVTLTVDKSSSTAYMELSSLRSEDTAVYYCARYHYGPHLEGYFDVWGQGTTVTVSS VL: DIQMTQSPSSLSASVGDRVTITCKASENVGYVSWYQQKPGKSPKLLIYGASNRYTGVPDRFSGSGSGTDFTLTISSLQPEDFATYYCGQSYSYPLTFGSGTKLEIKR | 2.54 | 0.00102 | 400000
6 | hu30L1H9 (antibody, human IgG1, kappa, V domains shown) VH: EVRLVQSGAEVKKPGASVKVSCKASGYTFTDYYMNWVRQAPGQSLEWIGIINPYTGDTSYNQKFRGRATLTVDKSASTAYMELSSLRSEDTAVYYCARYHYGPHLEGYFDVWGQGTTVTVSS VL: DIVMTQSPDSLAVSLGERATINCKASENVGYVSWYQQKPGQPPKLLIYGASNRYTGVPDRFSGSGSGTDFTLTISSLQAEDVAVYYCGQSYSYPLTFGQGTKLEIKR | 2.34 | 0.000981 | 419000
7 | hu30L1H11 (antibody, human IgG1, kappa, V domains shown) VH: EVRLVQFGAVVKKPGASVKVSCKASGYTFTDYYMNWVRQAPGQSLEWMGIINPYTGDTSYNQKFRGRVTLTVDKSSSTAYMELSSLTSEDTAVYYCARYHYGPHLEGYFDVWGQGTTVTVSS VL: DIVMTQSPDSLAVSLGERATINCKASENVGYVSWYQQKPGQPPKLLIYGASNRYTGVPDRFSGSGSGTDFTLTISSLQAEDVAVYYCGQSYSYPLTFGQGTKLEIKR | 2.83 | 0.00117 | 414000

More lines, now with the values ahead:

Row | Kd [nM] | koff [s⁻¹] | kon [M⁻¹ s⁻¹] | Binder
8 | 0.424 | 0.000811 | 1.91e+06 | hu6L4H6 (antibody, human IgG1, kappa, V domains shown) VH: EVQLVQSGSELKKPGASVKVSCKASGYTFTDYYMNWVRQAPGQGLEWMGIINPYSGVTIYNHKFKGRFVLSVDKSSNTAYLQISSLKAEDTAVYYCARQDSLLDYAMDYWGQGTTVTVSS VL: DIQMTQSPSSLSASVGDRVTITCHASQGISGNMGWLQQKPGKAPKGLIYHGANLEDGVPSRFSGSGSGADYTLTISSLQPEDFADYYCVQYAQFPYTFGGGTKVEIKR
9 | 2.02 | 0.00144 | 715000 | hu6L3H1 (antibody, human IgG1, kappa, V domains shown) VH: EVQLVQSGAEVKKPGASVKVSCKASGYTFTDYYMNWVRQAPGQRLEWMGIINPYSGVTIYNHKFKGRVTITVDKSASTAYMELSSLRSEDTAVYYCARQDSLLDYAMDYWGQGTTVTVSS VL: DIQMTQSPSSLSASVGDRVTITCHASQGISGNMGWLQQKPGKSFKGLIYHGANLEDGVPSRFSGSGSGADYTLTISSLQPEDFATYYCVQYAQFPYTFGGGTKVEIKR
10 | 2.01 | 0.00139 | 695000 | hu6L2H3 (antibody, human IgG1, kappa, V domains shown) VH: EVQLVQSGAEVKKPGASVKVSCKASGYTFTDYYMNWVRQAPGQRLEWIGIINPYSGVTIYNHKFKGRATLTVDKSANTAYMELSSLRSEDTAVYYCARQDSLLDYAMDYWGQGTTVTVSS VL: DIQMTQSPSSLSASVGDRVTITCHASQGISGNMGWLQQKPGKAPKGLIYHGANLEDGVPSRFSGSGSGADYTLTISSLQPEDFATYYCVQYAQFPYTFGGGTKVEIKR
11 | 1.59 | 0.00114 | 716000 | hu6L3H2 (antibody, human IgG1, kappa, V domains shown) VH: EVQLVQSGAEVKKPGASVKVSCKASGYTFTDYYMNWVRQAPGQRLEWMGIINPYSGVTIYNHKFKGRVTLTVDKSANTAYMELSSLRSEDTAVYYCARQDSLLDYAMDYWGQGTTVTVSS VL: DIQMTQSPSSLSASVGDRVTITCHASQGISGNMGWLQQKPGKSFKGLIYHGANLEDGVPSRFSGSGSGADYTLTISSLQPEDFATYYCVQYAQFPYTFGGGTKVEIKR
12 | 1.88 | 0.00135 | 718000 | hu6L3H3 (antibody, human IgG1, kappa, V domains shown) VH: EVQLVQSGAEVKKPGASVKVSCKASGYTFTDYYMNWVRQAPGQRLEWIGIINPYSGVTIYNHKFKGRATLTVDKSANTAYMELSSLRSEDTAVYYCARQDSLLDYAMDYWGQGTTVTVSS VL: DIQMTQSPSSLSASVGDRVTITCHASQGISGNMGWLQQKPGKSFKGLIYHGANLEDGVPSRFSGSGSGADYTLTISSLQPEDFATYYCVQYAQFPYTFGGGTKVEIKR
13 | 0.429 | 0.000682 | 1.59e+06 | M98CH1 (antibody, human IgG1, kappa, V domains shown, chimeric antibody of mAb98, human IgG1/kappa; also called M98CHI) VH: EVQLVESGGGLVKPGGSLKLSCAASGFTFSDYGIHWVRQAPEKGLEWVAYISSGGYTIYYADTVKGRFTISRDNAKNTLFLQMTSLRSEDTAMYYCARGDYDDIFYTMDYWGQGTSVTVSS VL: DIQMTQTTSSLSASLGDRVTISCRASRDITKFLNWYQQKPDGTVKLLIYYTSRLHSGVPSRFSGSGSGTDYSLTISNLDQEDIATYFCQQGNTLPWTFGGGTKLDIKR
14 | 1.97 | 0.00307 | 1.56e+06 | hu98L1H2 (antibody, human IgG1, kappa, V domains shown) VH: EVQLVESGGGLVQPGGSLRLSCAASGFTFSDYGIHWVRQAPGKGLEWVAYISSGGYTIYYADTVKGRFTISRDNAKNSLYLQMNSLRAEDTAVYYCARGDYEDIFYTMDYWGQGTTVTVSS VL: DIQMTQSPSSLSASVGDRVTITCRASRDITKFLNWYQQKPGKAPKLLIYYTSRLHSGVPSRFSGSGSGTDFTLTISSLQPEDFATYYCQQGNTLPWTFGGGTKVEIKR
15 | 2.16 | 0.000919 | 427000 | hu30L4H10 (antibody, human IgG1, kappa, V domains shown) VH: EVRLVQSGAEVKKPGASVKVSCKASGYTFTDYYMNWVRQSHGQSLEWMGIINPYTGDTSYNQKFRGRVTLTVDKSASTAYMELSSLRSEDTAVYYCARYHYGPHLEGYFDVWGQGTTVTVSS VL: DIQMTQSPSSLSASVGDRVTITCKASENVGYVSWYQQKPGKAPKLLIYGASNRYTGVPSRFSGSGSGTDFTLTISSLQPEDFATYYCGQSYSYPLTFGQGTKLEIKR
16 | 0.681 | 0.000657 | 965000 | M6CH1 (antibody, human IgG1, kappa, V domains shown, chimeric antibody of mAb6, human IgG1/kappa; also called M6CHI) VH: EVQLQQSGPVLVKPGASVKMSCKASGYTFTDYYMNWVKQSHGKSLEWIGIINPYSGVTIYNHKFKGKATLTVDKSSNTAYMELNSLTSEDSAVYYCARQDSLLDYAMDYWGQGTSVTVSS VL: DILMTQSPSSMSVSLGDTVSITCHASQGISGNMGWLQQKPGKSFKGLIYHGANLEDGVPSRFSGSGSGADYSLTISSLESEDFADYYCVQYAQFPYTFGGGTKLEIKR
17 | 1.16 | 0.00115 | 985000 | hu30L1H7 (antibody, human IgG1, kappa) heavy: not shown light: DIVMTQSPDSLAVSLGERATINCKASENVGYVSWYQQKPGQPPKLLIYGASNRYTGVPDRFSGSGSGTDFTLTISSLQAEDVAVYYCGQSYSYPLTFGQGTKLEIKRTVAAPSVFIFPPSDEQLKSGTASVVCLLNNFYPREAKVQWKVDNALQSGNSQESVTEQDSKDSTYSLSSTLTLSKADYEKHKVYACEVTHQGLSSPVTKSFNRGEC
